# From the Immune Epitope Database (IEDB)
# Key:
# HLA-A*02:03 = assay: IEDB peptide-MHC binding, purified MHC/direct/fluorescence; filed as Kd, often an IC50 or EC50 that approximates it; ≥ and ≤ were set here for values at or beyond the usual limits of such assays
# HLA-A*02:11 = assay: as above
# HLA-A*02:12 = assay: as above
# HLA-A*02:16 = assay: as above
# HLA-A*02:19 = assay: as above
# HLA-A*03:01 [1] = assay: as above
# HLA-A*29:02 = assay: as above
# HLA-A*68:02 = assay: as above
# HLA-A*02:01 [2] = assay: IEDB peptide-MHC binding, purified MHC/competitive/fluorescence; filed as Kd, often an IC50 or EC50 that approximates it; ≥ and ≤ were set here for values at or beyond the usual limits of such assays
# HLA-A*24:03 [3] = assay: as above; conditions: source organism: Lechiguanas virus
# HLA-A*26:01 [4] = assay: as above
# HLA-A*69:01 = assay: as above
# HLA-B*15:17 = assay: as above
# HLA-B*18:01 = assay: as above
# HLA-B*27:03 = assay: as above
# HLA-B*39:01 = assay: as above
# HLA-B*46:01 = assay: as above
# HLA-B*51:01 = assay: as above
# HLA-B*57:01 = assay: as above
# HLA-A*24:03 [5] = assay: IEDB peptide-MHC binding, purified MHC/direct/fluorescence; filed as Kd, often an IC50 or EC50 that approximates it; ≥ and ≤ were set here for values at or beyond the usual limits of such assays
# HLA-A*26:01 [6] = assay: as above; conditions: source organism: Hantavirus Monongahela-3
# HLA-B*15:01 [7] = assay: as above; conditions: source organism: Itapua hantavirus
# HLA-A*01:01 = assay: IEDB peptide-MHC binding, purified MHC/competitive/fluorescence; filed as Kd, often an IC50 or EC50 that approximates it; ≥ and ≤ were set here for values at or beyond the usual limits of such assays
# HLA-A*02:01 [8] = assay: IEDB peptide-MHC binding, purified MHC/competitive/fluorescence; ≥ and ≤ were set here for values at or beyond the usual limits of such assays
# HLA-A*03:01 [9] = assay: as above
# HLA-A*11:01 [10] = assay: as above
# HLA-B*15:01 [11] = assay: as above; conditions: source organism: Sudan ebolavirus
# HLA-A*11:01 [12] = assay: IEDB peptide-MHC binding, purified MHC/competitive/fluorescence; filed as Kd, often an IC50 or EC50 that approximates it; ≥ and ≤ were set here for values at or beyond the usual limits of such assays
# HLA-A*03:01 [13] = assay: as above; conditions: source organism: Encephalitozoon cuniculi GB-M1
# HLA-A*31:01 = assay: as above; conditions: source organism: Encephalitozoon cuniculi GB-M1
# [14] = source organism: Rio Mamore hantavirus
# [15] = source organism: Lechiguanas virus
# [16] = source organism: New York virus
# [17] = source organism: Araucaria virus
# [18] = source organism: Salmonella enterica subsp. enterica serovar Typhi
# [19] = source organism: Sudan ebolavirus
# [20] = source organism: Vaccinia virus
# [21] = source organism: Zaire ebolavirus
# [22] = source organism: Vaccinia virus WR
sequence,measurement,setting,value
LQPSDTLLF,Kd,HLA-A*02:03; [14],≥ 20 µM
same,Kd,HLA-A*02:11; [14],≥ 20 µM
same,Kd,HLA-A*02:12; [14],≥ 20 µM
same,Kd,HLA-A*02:16; [14],≥ 20 µM
same,Kd,HLA-A*02:19; [14],≥ 20 µM
same,Kd,HLA-A*03:01 [1]; [14],≥ 20 µM
same,Kd,HLA-A*29:02; [14],≥ 20 µM
same,Kd,HLA-A*68:02; [14],≥ 20 µM
same,Kd,HLA-A*02:01 [2]; [15],≥ 20 µM
same,Kd,HLA-A*24:03 [3],0.0049 µM
same,Kd,HLA-A*26:01 [4]; [15],≥ 20 µM
same,Kd,HLA-A*69:01; [15],≥ 20 µM
same,Kd,HLA-B*15:17; [15],≥ 20 µM
same,Kd,HLA-B*18:01; [15],≥ 20 µM
same,Kd,HLA-B*27:03; [15],≥ 20 µM
same,Kd,HLA-B*39:01; [15],≥ 20 µM
same,Kd,HLA-B*46:01; [15],≥ 20 µM
same,Kd,HLA-B*51:01; [15],≥ 20 µM
same,Kd,HLA-B*57:01; [15],≥ 20 µM
FVKDWMDRI,Kd,HLA-A*02:12; source organism: Choclo virus,≥ 20 µM
same,Kd,HLA-A*02:16; source organism: Choclo virus,≥ 20 µM
same,Kd,HLA-A*02:19; source organism: Choclo virus,≥ 20 µM
same,Kd,HLA-A*03:01 [1]; source organism: Choclo virus,≥ 20 µM
same,Kd,HLA-A*24:03 [5]; source organism: Choclo virus,≥ 20 µM
same,Kd,HLA-A*26:01 [6],0.0656 µM
same,Kd,HLA-A*29:02; source organism: Choclo virus,≥ 20 µM
same,Kd,HLA-A*02:01 [2]; [16],≥ 20 µM
same,Kd,HLA-A*69:01; [16],≥ 20 µM
same,Kd,HLA-B*15:17; [16],≥ 20 µM
same,Kd,HLA-B*18:01; [16],≥ 20 µM
same,Kd,HLA-B*27:03; [16],≥ 20 µM
same,Kd,HLA-B*39:01; [16],≥ 20 µM
same,Kd,HLA-B*46:01; [16],≥ 20 µM
same,Kd,HLA-B*51:01; [16],≥ 20 µM
same,Kd,HLA-B*57:01; [16],≥ 20 µM
AFMATNKAY,Kd,HLA-A*02:03; [17],≥ 20 µM
same,Kd,HLA-A*02:11; [17],≥ 20 µM
same,Kd,HLA-A*02:12; [17],≥ 20 µM
same,Kd,HLA-A*02:16; [17],≥ 20 µM
same,Kd,HLA-A*02:19; [17],≥ 20 µM
same,Kd,HLA-A*03:01 [1]; [17],≥ 20 µM
same,Kd,HLA-A*24:03 [5]; [17],≥ 20 µM
same,Kd,HLA-A*68:02; [17],≥ 20 µM
same,Kd,HLA-B*15:01 [7],0.0944 µM
same,Kd,HLA-A*02:01 [2]; [17],≥ 20 µM
same,Kd,HLA-A*69:01; [17],≥ 20 µM
same,Kd,HLA-B*15:17; [17],≥ 20 µM
same,Kd,HLA-B*18:01; [17],≥ 20 µM
same,Kd,HLA-B*27:03; [17],≥ 20 µM
same,Kd,HLA-B*39:01; [17],≥ 20 µM
same,Kd,HLA-B*46:01; [17],≥ 20 µM
same,Kd,HLA-B*51:01; [17],≥ 20 µM
same,Kd,HLA-B*57:01; [17],≥ 20 µM
MVEASGGRY,Kd,HLA-A*01:01; [18],0.122 µM
same,Kd,HLA-A*26:01 [4]; [18],1.42 µM
SMIYFFHHY,Kd,HLA-A*01:01; source organism: Homo sapiens,≥ 20 µM
VIYRGVNFA,IC50,HLA-A*02:01 [8]; [19],3.89 µM
same,IC50,HLA-A*03:01 [9]; [19],5.02 µM
same,IC50,HLA-A*11:01 [10]; [19],25.1 µM
same,IC50,HLA-B*15:01 [11],≥ 89.1 µM
SLMEMDYER,IC50,HLA-A*02:01 [8]; [20],2.2 µM
same,IC50,HLA-A*03:01 [9]; [20],≥ 155 µM
same,IC50,HLA-A*11:01 [10]; [20],1.9 µM
ITDRLFFK,Kd,HLA-A*11:01 [12]; source organism: Influenza A virus (A/California/04/2009(H1N1)),0.175 µM
GVRGFPRCR,IC50,HLA-A*03:01 [9]; [19],1.12 µM
same,IC50,HLA-A*11:01 [10]; [19],33.2 µM
FTDPEIVAE,Kd,HLA-A*01:01; source organism: Escherichia coli O139:H28 str. E24377A,≥ 20 µM
AGLITGGRR,IC50,HLA-A*03:01 [9]; [21],69.9 µM
same,IC50,HLA-A*11:01 [10]; [21],6.55 µM
TQVEQHHRR,IC50,HLA-A*03:01 [9]; [21],≥ 138 µM
same,IC50,HLA-A*11:01 [10]; [21],1.67 µM
MVAYMLER,Kd,HLA-A*11:01 [12]; source organism: Paramagnetospirillum magnetotacticum MS-1,3.25 µM
AFYTRVLKP,IC50,HLA-A*03:01 [9]; [22],≥ 202 µM
same,IC50,HLA-A*11:01 [10]; [22],24.2 µM
CVNDGGLFY,Kd,HLA-A*03:01 [13],1.01 µM
same,Kd,HLA-A*11:01 [12]; source organism: Encephalitozoon cuniculi GB-M1,0.11 µM
same,Kd,HLA-A*31:01,0.692 µM
